From the DeepSol protein solubility set

test: soluble on expression in E. coli; label from the status in PepcDB or PDB records

Soluble on expression in E. coli, soluble:
MSKPFKLNSAFKPSGDQPEAIRRLEEGLEDGLAHQTLLGVTGSGKTFTIANVIADLQRPTMVLAPNKTLAAQLYGEMKEFFPENAVEYFVSYYDYYQPEAYVPSSDTFIEKDASVNEHIEQMRLSATKAMLERRDVVVVASVSAIYGLGDPDLYLKMMLHLTVGMIIDQRAILRRLAELQYARNDQAFQRGTFRVRGEVIDIFPAESDDIALRVELFDEEVERLSLFDPLTGQIVSTIPRFTIYPKTHYVTPRERIVQAMEEIKEELAARRKVLLENNKLLEEQRLTQRTQFDLEMMNELGYCSGIENYSRFLSGRGPGEPPPTLFDYLPADGLLVVDESHVTIPQIGGMYRGDRARKETLVEYGFRLPSALDNRPLKFEEFEALAPQTIYVSATPGNYELEKSGGDVVDQVVRPTGLLDPIIEVRPVATQVDDLLSEIRQRAAINERVLVTTLTKRMAEDLTEYLEEHGERVRYLHSDIDTVERMEIIRDLRLGEFDVLVGINLLREGLDMPEVSLVAILDADKEGFLRSERSLIQTIGRAARNVNGKAILYGDKITPSMAKAIGETERRREKQQKYNEEHGITPQGLNKKVVDILALGQNIAKTKAKGRGKSRPIVEPDNVPMDMSPKALQQKIHELEGLMMQHAQNLEFEEAAQIRDQLHQLRELFIAAS
MAAERKTKLSKNLLRMKFMQRGLDSETKKQLEEEEKKIISEEHWYLDLPELKEKESFIIEEQSFLLCEDLLYGRMSFRGFNPEVEKLMLQMNAKHKAEEVEDETVELDVSDEEMARRYETLVGTIGKKFARKRDHANYEEDENGDITPIKAKKMFLKPQD
SNVFARSSVLAAEMIDVFDRTHTEKELVFQSKELCRDFIHSRITREGLSWSKVELDLPEPRGVLVDVSVVLLKLGDELECMRPYVYRNIAKQLNISVSVEAVVSDAFLSVATEVIAMGITWGKVVAIYAVAAGLAVDCVRLGHPVMVHTIVDSLGEFVRRSLVPWLKKRGGWVDILKCVVNMDSRAHVHWLSTAVLTWREFIKTMYVYLTK
MGSSHHHHHHSSGLVPRGSHMISNKLANIPDSYFGKTMGRKIEHGPLPLINMAVGIPDGPTPQGIIDHFQKALTIPENQKYGAFHGKEAFKQAIVDFYQRQYNVTLDKEDEVCILYGTKNGLVAVPTCVINPGDYVLLPDPGYTDYLAGVLLADGKPVPLNLEPPHYLPDWSKVDSQIIDKTKLIYLTYPNNPTGSTATKEVFDEAIAKFKGTDTKIVHDFAYGAFGFDAKNPSILASENGKDVAIEIYSLSKGYNMSGFRVGFAVGNKDMIQALKKYQTHTNAGMFGALQDAAIYALNHYDDFLEEQSNVFKTRRDRFEAMLAKADLPFVHAKGGIYVWLETPPGYDSEQFEQFLVQEKSILVAPGKPFGENGNRYVRISLALDDQKLDEAAIRLTELAYLYE
MAGDPMVIIHMIPKKIHYCWFGKGKHSKEMKKCIKSWKKYCPDYEIIEWNESNFDISAHPFVKAAYEAKAWAFVSDYARLKIIYDYGGVYLDTDVELIRNIDFLLQNDAYLGVEAQDWLCNTGLGFGAKKHNSIIAEMLQIYNEIEFDNSKKSTIACPYLNTAVVEKIGYKKQDRIQQLDKITIYPPKYFDPFPSGGSVSILICDETVSIHHYSASWGSWKNKLKRRIARFIGPKLTFKLKKLKIFLITRKLEHHHHHH
MRKTLIALMFAAALPTVAMAMPDGGPRHDGPHHRGDAPFHQLDLSRDQRQQIGKLMGEQMQQRRDITERYLSKLPATDQKAMKDELQANRDKTDSAVRKLLTADQQKKFDELQKERAAKKAEWQEFQAWKAEKGAKAQLEHHHHHH
LRASEIMNRTLDLQIIMDDLLNLLLKEFKLDLAVIRLVDEKGVLRVRSYSGKGIAGIAGKDWEPEIETYIGEAFLSNRLQFVNDTQYMTKPLTRELMQKEGIKSFAHIPISRKGEPPFGILSVFSRTIVGLFNEPFLNLLESLAGQLAQAVKIVTEMEAKEREREEKERILLENA
AHHHHHHGSKIPDDVRKDIPLTQEVIYFDNTATSLTPKPVIEAMDEYYLKYRANVHRGVHRLSQMATQKYEESRKVVADFINAKFEEIVFTKNTSESLNLVALGLEHTFKKGDKIVTTPYEHHSNLLPWQRLAKKLGLKLEFIEGDDEGNLDLSDAEKKIKGAKLVAVQHVSNALGVIHEVEELGRMAKEEGAIFVVDAAQSVGHMEVDVKKLNADFLAFSGHKGPMGPTGIGVLFISEEYFDVFDPPLIGGGTIEDVDLCCYKLTEPPERFEAGTPNIGGAIGLAAGIKYIEKIGIEKIEKQERKLVKRTTEGLDELEIPWYGPRNLDKHAGVVSFNVPPLHPHDVAAVLDEHKIMVRSGHHCALPVMKKLGINGTVRASFHVYNSVEEVEIFLGVLEDLVRKIRGAL
AGHMQQEAVAPEDSAVVKLATDSFNEYIQSHDLVLAEFFAPWCGHCKNMAPEYVKAAETLVEKNITLAQIDCTENQDLCMEHNIPGFPSLKIFKNSDVNNSIDYEGPRTAEAIVQFMIKQSQPAVAVVADLPAYLANETFVTPVIVQSGKIDADFNATFYSMANKHFNDYDFVSAENADDDFKLSIYLPSAMDEPVVYNGKKADIADADVFEKWLQVEALPYFGEIDGSVFAQYVESGLPLGYLFYNDEEELEEYKPLFTELAKKNRGLMNFVSIDARKFGRHAGNLNMKEQFPLFAIHDMTEDLKYGLPQLSEEAFDELSDKIVLESKAIESLVKDFLKGDASPIVKSQEIFENQDSSVFQLVGKNHDEIVNDPKKDVLVLYYAPWCGHCKRLAPTYQELADTYANATSDVLIAKLDHTENDVRGVVIEGYPTIVLYPGGKKSESVVYQGSRSLDSLFDFIKENGHFDVDGKALYEEAQEKAAEEADADAELADEEDAIHDEL

Soluble on expression in E. coli, not soluble:
MKKSSILILIIICLVGCKKGSNETTITGEIKGLGTDTLYLYGMDELYDRIDTIYVENDKFSYTTSVDTITSAYLLLKNRIEYPVFLDKGNKIKIKGDTINLNFLTISGNIYNEEFTDFQKALEDPADPSEKAGEETVDKRITVEKANTAEEMAEEFILQHHSSYVSLYLLDKYFVQKETPDFSKIKKLVEVMTGVLQDKPYIERLNETITQAEKSEIGKYAPFFSLPNAKGEKITRSSDAFKQKSLLINFWASWNDSISQKQSNSELREIYKKYKKNKYIGMLGISLDVDKQQWKDAIKRDTLDWEQVCDFGGLNSEVAKQYSIYKIPANILLSSDGKILAKNLRGEELKKKIENIVEEATEKEKKNKQKK
MKTRVVLILALSVCIEAASEVIRARAYIFKAEAGKIPTELIGTIDFDQSGSFLKLNGSVSGLAAGKHGFHIHEKGDTGNGCLSAGGHYNPHKLSHGAPDDSNRHIGDLGNIESPASGDTLISVSDSLASLSGQYSIIGRSVVIHEKTDDLGRGTSDQSKTTGNAGSRLACGTIGTV
MGSDKIHHHHHHFEDLKPVIADSTKVTQAHTYKDINKLDIDVKDVNVEFREGKNYSVRYEGAKSSSPTVKKSGNQLQIKGRLSSHSIRFNGMSMYDDYYRNSDRNKMIITLPKDSKLDELNLKLSDSLLSQVNMTGIEADRVKASIHDTKLDLRDANFGNVELSAGDSDISMTNTVLSNGKLDLNDTDVRLDGGSLMQVAMNITEGDVDYNNLSIQGGNLRNNDGDIKMSNTQIQGGYKIDDTDGDILVSRVTVDGYRVQSNDGDVRLFEQTTSNGNVLEKNSNSDNVLDIISNDGDITVN
MGSDKIHHHHHHMDAFYASVEQRDNPELCGKPLAVGHAEERGVVAAASYEARRYGVHSAMSSQKAKRLCPELIFVPGRMNVYKAVSRQIHDIFHTYTDIIEPLSLDEAFLDVTENKAGFSLAIDIAKDIKKRIRKELGLIASAGVSYNKFLAKIASDYRKPDGLCTIHPDQALDFIAHLPIESFWGVGPVTAQKMHALGIHNGTQLQACTLEMLTRQFGKAGNLYYDFARGIDLRPVEPIRIRKSVGCEHTLEKDISLHSSAIIELYHVVTELLERLKRTNFSGNTLTLKIKFHDFNQITRSITQDSELTSMDKILPLAKKLLKEIDYESHPIRLIGLSVSNPKEEIKKQWEQLSLEFKEWDD
MGSDKIHHHHHHMKCSKCSAEAIYYAKYNGLYLCRDHFNEMIEGRVKKEIRKQVEFHGDDVTISVALSGGKDSSVTLFLLHKILGNRKNMKIKAFTVDEGIDGYRPSGLESAKRLCTSLGIDHETISFYDSYGLTLDSIVKTNPVKIPCAYCGPLRRKLINEMADKQDADYVALGLNLDDYSQSILMNVAKGDFDRFIRMSPQTDRKVGLVRRIAPLRTILEKEVVLYAVTNDIPFDSSWCPYYSRAQRNVFREVVNKLSEENPSTKFAILKFFDRVRENITTGHEEVKLKRCKICGAPTERDVCTACSSLQEVNEMMAEH
MSLYFLLQKVILPNIDLCTEEQLYFRTQGGKYNYTSRNLLVPRHKVAYFDTFFNAFSIKKWKKYTTLTSLFLRVNIIGRGTITVRHKENGVIRVLKQIDFKSSCNISDEIEIDISKINFGYIYVEWQSDEDSVLNGFELLTKDHVSKSSMALVITTYNRKEAVTKTINRINKTLLTQSEFKDRFKLIVVNNGEAINHPSGNGIIVINNENLGGSGGFMRGLIEAGKINDVKHVIFMDDDGSCEIESICRTHAFLLMAKDKNTVVTGCMLFEDNPAIIHESGAIWHRDFLHYPDKHYLDAREIDSLDTFDNERKIGYGGWWFFAFNINAIEYYSFPFFVRGDDLLFGYMHKKHNIVTLNGVASWQMDFERKISVLNSYLNFRTVAVPALISKREGHHHHHH
MTTTTPIRLLVRPITAGDNLAIANVIREVSAEFGLTADKGYTVSDPNLDHLYELYSQPRSAYWVIEVDGHIAGGGGVAPLLGGEADLCELQKMYFLPILRGKGLAKQLALQALAFARQQGFGRCYLETTASLTSAVGLYERLGFEHIGGAMGNTGHVDCEVTMLKTL
MGSDKIHHHHHHMFKPMASVFTNHQIAGHYRAIERAQKCVVPFHFEIQGQEYPKPKPERNWLRRLSGTSSEKYAMVELTPTKVVLWSPEGRNLGEMPLSAVRRIQIGAIRCHVTEGLDPRHAFRATIFVLTDSGNYYFANSDMEVLPAICKFAHEHQVPVEDPLRLIPLLKVGWRVAAVTLHETYAQLVAHTGYPADKV
MSEEWEPKIVGFCCNWCTYGGADTAGVGRMQYPPSIRIIRVMCSGRIEPSFILKAFKEGADGVFIGGCHLGDCHYDAGNYKWQRRVMMLYDMLDELGIGRERVLHEWISASEGEKFQTKMNEIYDRIKALGPCTLNENLK
MAATITDDIVATVLESIEEKSYEDEKEKAGMIKDEANQFFKDQVYDVAADLYSVAIEIHPTAVLYGNRAQAYLKKELYGSALEDADNAIAIDPSYVKGFYRRATANMALGRFKKALTDYQAVVKVCPNDKDARAKFDECSKIVRRQKFEAAISTDHDKKTVAETLDINAMAIEDSYDGPRLEDKITKEFVLQLIKTFKNQQKLHKKYAFKMLLEFYNYVKSLPTMVEITVPTGKKFTICGDVHGQFYDLCNIFEINGYPSETNPYLFNGDFVDRGSFSVETIFTMIGFKLLYPNHFFMSRGNHESDVMNKMYGFEGEVKAKYTQQMCDMFTETFCWLPLCHLINEKIFVCHGGLFKEDGVTLEDIRKTDRNRQPPDEGIMCDLLWSDPQPINGRSPSKRGVGCQFGPDVTSKWCETNGIEYVVRSHEVKPEGYEMHHNGQCFTVFSAPNYCDQMNNKGAFITITGDNLTPRFTPFDAVPHPKLPPMAYANSLFGFN
